This note sets out measurements from US20230192819A1 (TWIST BIOSCIENCE, published 2023).

Positions count from the first letter of the chain named. Several values for one entry are separate records, joined by “and”; a condition that tells them apart may be missing. Equal values may be shown once. Read-outs that look alike come from different tables or passages of the source.

For experiment [1], the target named is T1, Acro S1 spike protein (SARS-CoV-2) (SARS-CoV-2, UniProt P0DTC2 16-685). Description: SPR (Carterra LSA).
The target in experiment [2] is T2, S1 variant B.1.1.7: UK (Acro) spike protein (SARS-CoV-2, UniProt P0DTC2 16-1213). Description: SPR (Carterra LSA).
The target of experiment [3] is T3, C52Hk S. African variant (Acro) spike protein (SARS-CoV-2, UniProt P0DTC2 16-1213). Put plainly: SPR (Carterra LSA).
The target of experiment [4] is T4, C52Hg Brazilian variant (Acro) spike protein (SARS-CoV-2, UniProt P0DTC2 16-1213). Description: SPR (Carterra LSA).
Experiment [5] has as its target T3, C52Hk S. African variant (Acro) spike …. Put plainly: SPR (Carterra LSA); […]; 1:1 model; […].
The target in experiment [6] is T4, C52Hg Brazilian variant (Acro) spike …. Put plainly: SPR (Carterra LSA); […]; 1:1 model; […].
Experiment [7] deals with T3, C52Hk S. African variant (Acro) spike …. Put plainly: SPR (Carterra LSA); antibody on chip, spike protein as analyte; summary table.
The target in experiment [8] is T4, C52Hg Brazilian variant (Acro) spike …. The experiment is described as above.
Experiment [9] deals with California Variant W152C_L452R_D614G.
The target of experiment [10] is T1, Acro S1 spike protein (SARS-CoV-2).
The target of experiment [11] is T2, S1 variant B.1.1.7: UK (Acro) spike ….
Experiment [12] concerns the target T4, C52Hg Brazilian variant (Acro) spike ….
In experiment [13] the target is Delta variant (Acro) spike protein (SARS-CoV-2, UniProt P0DTC2 16-1213).
Experiment [14] concerns the target T2, S1 variant B.1.1.7: UK (Acro) spike …. Put plainly: SPR (Carterra LSA); […]; 1:1 model; […].
The target is the same in experiment [15]. Description: SPR (Carterra LSA); antibody on chip, spike protein as analyte; summary table.
The target of experiment [16] is T1, Acro S1 spike protein (SARS-CoV-2). Description: SPR (Carterra LSA); […]; 1:1 model; […].
The target is the same in experiment [17]. Put plainly: SPR (Carterra LSA); antibody on chip, spike protein as analyte; summary table.

B1: Antibody 1-3 (Fc fusion)
chain: EVQLVESGGGLVQPGGSLRLSCAASGTTFRINVMGWFRQAPGKEREFVAGISWTGGSTIYADSVKGRFTISADNSKNTAYLQMNSLKPEDTAVYYCAAFDGYSGSDWGQGTLVTVSS
For B1, the binding result in experiment [1], in [2], in experiment [3] and in [4] was “no binding” throughout.

B2: Antibody 1-21 (Fc fusion)
chain: B1 chain with T27P, R30S, N32Y, V33A, F47L, T54N, I59N, S103T
In the case of B2, the binding result in [1], in experiment [2], in experiment [3] and in [4] was “no binding” each time.

B3: Antibody 1-11 (Fc fusion)
chain: B1 chain with T27F, R30D, I31D, N32Y, G50V, G56E, I59L
For the molecule B3, the Kd (in general, the free concentration of one partner at which half of the binding sites on the other are occupied at equilibrium, for simple one-to-one binding) in experiment [5] was determined as 5 nM; in experiment [6], 4.67 nM; in [7] it was 5 nM; in experiment [8] it was 4.67 nM. For the same molecule, the figures for the dissociation rate constant (koff) in experiment [5] and in [6] were 0.0019 s⁻¹ and 0.0014 s⁻¹, respectively. The kon – broadly, the second-order rate constant of association – in experiment [5] was 380000 M⁻¹ s⁻¹; in experiment [6] it was 300000 M⁻¹ s⁻¹.

B4: Antibody 1-20 (Fc fusion)
chain: EVQLVESGGGLVQPGGSLRLSCAASGRTFRRYTMGWFRQAPGKEREFVASITSSGVNAYADSVKGRFTISADNSKNTAYLQMNSLKPEDTAVYYCAKEDVGKPFDWGQDTLVTVSS
With B4, the binding result in experiment [1], in experiment [2], in experiment [3] and in experiment [4] was “no binding” in each case.

B5: Antibody 1-8 (Fc fusion)
chain: B4 chain with F29L, R30S, S54G, V56T, N57T, A58N, D109G
For the molecule B5, the IC50 (in general, the midpoint of a concentration-inhibition curve) in [9] stood at 2.72 nM. Besides, the Kd is 2.22 nM and 4.13 nM in experiment [10]; 3.2 nM in experiment [11]; 2.53 nM and 1.9 nM in experiment [12]; 2.39 nM and 3.18 nM in experiment [13]; 2.26 nM in [14]; 1 nM in experiment [5]. Moreover, the Kd in experiment [6] is 0.321 nM; in experiment [15], 2.26 nM; in experiment [7], 1 nM; in experiment [8], 0.321 nM. Moreover, the koff – broadly, the first-order rate constant of dissociation – in experiment [10] was 0.000412 s⁻¹ and 0.000662 s⁻¹; in [11] it was 0.000572 s⁻¹; in [12], 0.000158 s⁻¹ and 0.00011 s⁻¹; in [13], 0.000409 s⁻¹ and 0.000318 s⁻¹; in experiment [14], 0.0007 s⁻¹; in experiment [5], 0.00057 s⁻¹. In experiment [6], this molecule displayed a koff of 0.00017 s⁻¹. Moreover, the kon in experiment [10] was 186000 M⁻¹ s⁻¹ and 160000 M⁻¹ s⁻¹; in experiment [11], 179000 M⁻¹ s⁻¹; in experiment [12], 62400 M⁻¹ s⁻¹ and 58000 M⁻¹ s⁻¹; in experiment [13], 171000 M⁻¹ s⁻¹ and 100000 M⁻¹ s⁻¹; in experiment [14] it was 310000 M⁻¹ s⁻¹; in [5] it was 570000 M⁻¹ s⁻¹. This molecule also yielded a kon in experiment [6] of 530000 M⁻¹ s⁻¹.

B6: Antibody 1-17 (Fc fusion)
chain: EVQLVESGGGLVQPGGSLRLSCAASGRTIVPYTMGWFRQAPGKEREEVAAISTGGGGTYYADSVKGRFTISADNSKNTAYLQMNSLKPEDTAVYYCAVDGPFGWGQGTLVTVSS
Turning to B6, in [16], the Kd stood at 5.15 nM, the koff was 0.0017 s⁻¹ and the kon stood at 330000 M⁻¹ s⁻¹. In [17], this molecule returned a Kd of 5.15 nM.

B7: Antibody 1-2 (Fc fusion)
chain: EVQLVESGGGLVQPGGSLRLSCAASGGSEYSYSTFSSFVMGWFRQAPGKERELVASISWSGGHTFYADSVKGRFTISADNSKNTAYLQMNSLKPEDTAVYYCAAYLRGPYYSSFYDSTKYEWGQGTLVTVSS
For B7, in experiment [16], the Kd amounted to 2.41 nM, the koff is 0.00053 s⁻¹ and the kon was 220000 M⁻¹ s⁻¹. Further, in experiment [17], the Kd came out at 2.41 nM.

B8: Antibody 1-16 (Fc fusion)
chain: EVQLVESGGGLVQPGGSLRLSCAASGRTYAMGWFRQAPGKERELVAEITAGGSTYYADSVKGRFTISADNSKNTAYLQMNSLKQEDTAVYYCAVDGPFGWGQGTLVTVSS
On to B8, for which the Kd in experiment [14] was determined as 1.06 nM; in experiment [6] it was 4.79 nM; in [15], 1.06 nM; in [8], 4.79 nM. Also, the koff in experiment [14] is 0.00037 s⁻¹; in [6], 0.0034 s⁻¹. Further, the kon in [14] was found to be 350000 M⁻¹ s⁻¹; in experiment [6] it was 710000 M⁻¹ s⁻¹.

B9: Antibody 1-6 (Fc fusion)
chain: EVQLVESGGGLVQPGGSLRLSCAASGSISSINVMGWFRQAPGKEREWMGVMAYDGSTYYADSVKGRFTISADNSKNTAYLQMNSLKPEDTAVYYCAAFDGYSGSDWGQGTLVTVSS
On to B9, for which the binding result in experiment [1], in experiment [2], in experiment [3] and in experiment [4] was “no binding” in each case.

B10: Antibody 1-13 (Fc fusion)
chain: EVQLVESGGGLVQPGGSLRLSCAASGRTTFSSYTMGWFRQAPGKEREFVASITRSGVLNYADSVKGRFTISADNSKNTAYLQMNSLKPEDTAVYYCAKEDVGKPFDWGQGTLVTVSS
In the case of B10, the Kd came out at 18.2 nM in experiment [16], 5.18 nM in experiment [14], 18.2 nM in experiment [17] and 5.18 nM in [15]. The koff in [16] amounted to 0.0031 s⁻¹; in [14] it was 0.00088 s⁻¹. Besides, the kon in [16] and in [14] was 170000 M⁻¹ s⁻¹ throughout.

B11: Antibody 1-14 (Fc fusion)
chain: EVQLVESGGGLVQPGGSLRLSCAASGFTPDDYAMGWFRQAPGKEREFVAAINWSGVTTYHYYADSVKGRFTISADNSKNTAYLQMNSLKPEDTAVYYCASDESDAANWGQGTLVTVSS
Consider B11, for which the binding result in [1], in [2], in experiment [3] and in experiment [4] was “no binding” each time.

B12: Antibody 1-19 (Fc fusion)
chain: EVQLVESGGGLVQPGGSLRLSCAASGFTFSDYAMGWFRQAPGKEREVVARIYWSSANTYYADSVKGRFTISADNSKNTAYLQMNSLKPEDTAVYYCATYGYDSGRYYSWGQGTLVTVSS
Turning to B12, the binding result in experiment [1], in experiment [2], in [3] and in experiment [4] was “no binding” each time.
